Results reported in article PMC12404759, “Efficacy and safety of a therapeutic humanized FSH-blocking antibody in obesity and Alzheimer’s disease models” (The Journal of Clinical Investigation, 2025).

How the values were obtained:
[1] = biological target: T1, follicle-stimulating hormone (FSH) (Homo sapiens (Human)., UniProt P01215;P01225); test: protein thermal shift assay; antibody incubated with FSH; right-shift in melting temperature (Tm) of the ligand-binding Fab domain; settings: both partners purified
T1 construct: FSH alpha subunit (FSHα, glycoprotein hormones alpha chain); FSH beta subunit (FSHβ); Heterodimeric hormone

[2] = biological target: T1, follicle-stimulating hormone (FSH); test: cell-based or functional assay

T1 sequence (P01215 25-116, chain 1 of 2): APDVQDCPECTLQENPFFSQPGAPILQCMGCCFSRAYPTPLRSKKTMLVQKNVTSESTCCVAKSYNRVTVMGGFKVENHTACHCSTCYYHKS
T1 sequence (P01225 19-129, chain 2 of 2): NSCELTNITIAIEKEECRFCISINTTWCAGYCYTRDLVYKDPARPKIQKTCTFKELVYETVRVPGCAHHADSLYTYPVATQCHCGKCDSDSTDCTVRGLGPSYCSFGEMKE

B1: MS-Hu6 (antibody, V domains shown)
VH: QVQLQESGPGLVKPSQTLSLTCTVSGFSITSDYAWNWIRQPPGKGLEWIGSIFSSGSINYNPSLKSRVTISRDTSKNQFSLKLSSVTAADTAVYYCARGGTGTDYWGQGTLVTVSS
VL: DIQMTQSPSSLSASVGDRVTITCRASQDISNYLSWYQQKPGKAIKLLIYYTSRLHSGVPSRFSGSGSGTDYTLTISSLQPEDFATYFCQQGHTLPPTFGGGTKVEIK
notes: humanized VH and CH1; heavy chain of the Fab fragment (Hu6-Fab) deposited as PDB 8VZW; hinge and Fc of the full-length IgG; humanized VL and CL; light chain of the Fab fragment (Hu6-Fab) deposited as PDB 8VZW; the chimeric precursor used human IgK-CL; Full-length humanized IgG derived from the murine antibody Hf2 with the CDRs unaltered; The crystal was of the Fab fragment only
With B1 the “right-shift in Tm of the Fab domain” value [1] was ~1.8 °C, the “EC50 based on UCP1 activation in dedifferentiated brown adipocytes (Thermo cells)” value [2] was 3.21 nM and the “IC50 for cAMP inhibition in SH-SY5Y human neuroblastoma cells” value [2] was 2.01 nM. For the same binder, the “IC50 of inhibition of cAMP elevation in response to FSH (5 μg/mL) in KGN human ovarian cancer cells” value [2] was 0.64 nM.
